# In the supplement of paper PMC10126150:
# ± gives the standard deviation of the averaged measurements.
# System: ATP
# Assay: switch fluorescence ratio, 500 uM ATP over buffer (Cy3 cluster intensity, sum of 5 cycles each) (fold (ratio)); higher = stronger signal-on switching upon ATP binding; sequences stand for … in TCGTCGGCAGCGTCAGATGTGTATAAGAGACAGTTTTTTTTTTTTTTTTTTTTTTTTT…TC
# Conditions: aptamer strand: ATP DNA aptamer (quencher-CACCTGGGGGAGTATTGCGGAGGAAGG + anchor), 100 nM annealed; ATP concentration: 500 uM
# Summary of the method: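 The fluorescence ratio divides summed target-cycle Cy3 intensity by summed buffer-cycle Cy3 intensity for each cluster and is averaged per switch-domain sequence. Cy3-labelled switching-strand clusters on a modified Illumina MiSeq flow-cell were annealed to 100 nM quencher-labelled ATP aptamer, then imaged in selection buffer and again after 15 min with 500 uM ATP at 22 °C. Five such cycles were run, with NaOH stripping and re-annealing between them, and clusters outside 100-1000 RFU were excluded.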
# 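Further: ATP exposure 15 min at 22 °C before imaging.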
row,Sequence,switch fluorescence ratio
1,GGCATTCGAT,0.981 ± 0.03
2,TTAATTTTAG,0.9764 ± 0.0094
3,AGCCGTTTCG,0.999 ± 0.017
4,TTGATATTTG,1.01 ± 0.039
5,TTGGCTGCGG,0.95 ± 0.021
6,TGTTGTCAAG,1.01 ± 0.026
7,GATTACTTCA,1.065 ± 0.0071
8,GTGAGATGTT,1 ± 0.016
9,AAATAGGGTA,0.993 ± 0.023
10,TTTCAGAAGG,1.01 ± 0.023
11,CGTATTTCAG,0.983 ± 0.011
12,TGGACATGGT,0.9856 ± 0.005
13,AGGTTATTTG,0.978 ± 0.015
14,TTGTGAGGTT,1.06 ± 0.088
15,AACAGCACGA,1.28 ± 0.1
16,GAATATGAGA,0.9629 ± 0.0051
17,TGTGTCGGTC,1.07 ± 0.085
18,ATGATGCGGG,1.01 ± 0.044
19,TTACCATTGG,1.04 ± 0.082
20,CATTTAGGGC,1.02 ± 0.054
21,TTGATGTCAA,0.999 ± 0.056
22,GTAATTCAGA,0.99 ± 0.037
23,TTAATGAAGG,1 ± 0.025

row,Sequence,switch fluorescence ratio
1,GACTCGGTGC,1.05 ± 0.019
2,ACATGGGGA,1.002 ± 0.0018
3,TTGTATGTTT,0.98 ± 0.023
4,TTACAAGAAA,1.03 ± 0.041
5,TGGAGGAGAG,0.99 ± 0.018
6,TGCAAAAGGT,1.02 ± 0.087
7,GGAGTGCCAG,1 ± 0.027
8,AGCGAGCGAA,1.01 ± 0.014
9,CGTTACGCTG,0.979 ± 0.026
10,TTACATGTAA,0.996 ± 0.023
11,AATTAAAAAT,0.987 ± 0.017
12,CGTGTACGGA,1.022 ± 0.0021
13,TAGGGGACAA,1 ± 0.035
14,AGAAGCGACA,0.994 ± 0.032
15,GCTGCTTTTT,1.01 ± 0.041
16,CTGGTCGCT,0.976 ± 0.017
17,GAACGTTTGC,1.11 ± 0.017
18,TATATCAATC,0.991 ± 0.013
19,TCCAAGAGTT,0.989 ± 0.0055
20,CTGTGGTGGG,0.996 ± 0.051
21,CGGGAAGGGG,1.02 ± 0.03
22,CTATCTCTTG,1 ± 0.017
23,AAACACCGGG,1.11 ± 0.031

row,Sequence,switch fluorescence ratio
1,TCTCTGTCTC,1.12 ± 0.097
2,GATCATGCTA,1.02 ± 0.02
3,TCTACTGGGG,0.994 ± 0.029
4,TATGTGGGTA,0.983 ± 0.026
5,TTGTTCGTTT,0.986 ± 0.025
6,GCTATCGTGC,0.975 ± 0.013
7,CGGCTTGCGG,1.03 ± 0.015
8,GATGGTTATC,0.961 ± 0.026
9,ATTGATTGTA,0.995 ± 0.035
10,ATAGGGGCAT,1 ± 0.025
11,TACCGTGGGT,0.99 ± 0.021
12,TTTGAGCATT,1.04 ± 0.043
13,TATTAGTTGG,0.971 ± 0.023
14,ATTTGGTGAC,0.9987 ± 0.0042
15,AGGGCGTAAG,0.9716 ± 0.0055
16,GGGGGATATA,1.01 ± 0.021
17,GATTAAAGGA,1.01 ± 0.011
18,CTGATGTGTA,0.965 ± 0.059
19,ACGGCAAGGA,1.12 ± 0.028
20,CGGGGTCTTC,0.996 ± 0.012
21,GAAGGGGTAC,1.16 ± 0.15
22,GCGTCTAATC,0.994 ± 0.011
23,AGAGGTTTTT,0.989 ± 0.019

row,Sequence,switch fluorescence ratio
1,TAGCGGGTTC,1.055 ± 0.0048
2,CAAGTAGACC,0.997 ± 0.13
3,AGTCAAAAAA,1.17 ± 0.3
4,TCGTTGGGTG,0.994 ± 0.015
5,ACTATCCAGG,2.226 ± 0.0049
6,GTCCCGGTTT,1.02 ± 0.095
7,TTTGGCCGCT,0.985 ± 0.011
8,TTAGTTTTAT,1 ± 0.027
9,GGGGATGTCT,1.03 ± 0.03
10,CCAGCTGGAT,1.015 ± 0.0088
11,TATTCTCTTT,1.04 ± 0.081
12,TTCAATTTGC,1.02 ± 0.033
13,AAAGCGTATA,0.987 ± 0.052
14,AGTTTGTACG,1.04 ± 0.024
15,GTTGCCGGGG,1.01 ± 0.015
16,TGAGGTATTA,1.0075 ± 0.00077
17,TTAGGCGGGC,1.02 ± 0.027
18,CATACCCTTG,1.01 ± 0.037
19,TGGTTTGGTT,0.986 ± 0.04
20,GCCATCAATA,1.03 ± 0.023
21,GTAATCATCG,0.9847 ± 0.0073
22,GGGCTATGTC,1.01 ± 0.038
23,GTGTTTTTGT,0.9723 ± 0.0083

row,Sequence,switch fluorescence ratio
1,GGATTGGACT,1 ± 0.019
2,GTGTTGTTTT,0.987 ± 0.028
3,GAGGAGCTTG,0.94 ± 0.096
4,TAAGGATGTT,0.974 ± 0.026
5,TTTCAGTGGT,0.986 ± 0.024
6,TGAATTTATA,1.024 ± 0.0093
7,ATAGGTGGTT,0.994 ± 0.019
8,CAAGGTCCAG,1 ± 0.041
9,AGGGCAGGTG,2.65 ± 0.13
10,GCGGGTGGCT,1.03 ± 0.019
11,TCAGCGTTTC,1.05 ± 0.027
12,ATATATGCCG,0.985 ± 0.044
13,TGTCGCGTAG,0.993 ± 0.034
14,ATTAGTTGGC,0.993 ± 0.027
15,CATGGATACA,0.978 ± 0.052
16,ATTGGAATTA,0.985 ± 0.047
17,ACTGTTTTGA,0.962 ± 0.01
18,AGGCGGGGCT,0.97301 ± 0.00064
19,CCTCTTAACT,1.13 ± 0.037
20,AAAAAGTTGT,1 ± 0.028
21,GGGGAAAAGT,1.01 ± 0.029
22,CTTTAAGGCA,0.981 ± 0.017
23,GATATGGAAG,1.13 ± 0.23

row,Sequence,switch fluorescence ratio
1,TATCTAAAAC,1.001 ± 0.0032
2,CGTGATTAAG,1.09 ± 0.17
3,CGAAGCTTAT,2.74 ± 0.53
4,GGCAGAATGA,1 ± 0.018
5,GGGGGGATTC,1.01 ± 0.019
6,GTGTAGGGTA,1.01 ± 0.02
7,GGACTGGTCG,1 ± 0.022
8,TGTTTTGGCA,0.9963 ± 0.0052
9,TCTATAAATA,0.985 ± 0.022
10,CAGTGATTC,1.26 ± 0.35
11,ACTATATTTG,1.04 ± 0.022
12,AATGTGAATG,0.992 ± 0.021
13,TTGGGAAAAA,1.14 ± 0.23
14,GGTGTCTGCG,1.01 ± 0.013
15,AGCTTTGGGA,0.995 ± 0.085
16,TTATGGCGCC,0.9862 ± 0.0046
17,ACTGGACTGT,1.18 ± 0.026
18,AACGGGACGT,0.961 ± 0.06
19,GAATCAGGGG,1.11 ± 0.012
20,AACGGGTACC,1.09 ± 0.088
21,TCGTGTGACC,1.009 ± 0.0093
22,GAAGAGAGGC,0.96 ± 0.024
23,ACATTTTTTT,1.01 ± 0.029

row,Sequence,switch fluorescence ratio
1,CGAAATGGCA,1.03 ± 0.045
2,CGTACTTGGG,0.982 ± 0.011
3,GGGGTCGGTT,1.01 ± 0.051
4,CGGGAACCTT,1.283 ± 0.01
5,GGGTTTGTA,0.965 ± 0.04
6,GCTATGTGGG,1.003 ± 0.0041
7,GCTCTTAGTT,0.992 ± 0.018
8,ACTAGTTTTG,0.976 ± 0.033
9,GGAATATATA,0.951 ± 0.013
10,ACTCTGTGC,1.21 ± 0.032
11,TCGGAATCAA,1.127 ± 0.0071
12,ACGTTGTACA,1.06 ± 0.038
13,TATATGCGCG,0.994 ± 0.041
14,TATTAGTGGG,0.979 ± 0.025
15,GTTGCCTTCA,1.14 ± 0.035
16,CGACGGGTTT,1.08 ± 0.035
17,TTTATATTAT,0.993 ± 0.043
18,TTAATTATGG,1 ± 0.034
19,AGGGCGGTCT,1.07 ± 0.18
